In patent US20200115460A1 (TEIJIN PHARMA, published 2020):

Tests used:
hINSR[L2]/hIGFIR = target: T1, hINSR[L2]/hIGFIR (human); experiment: Cell ELISA, 10 nM antibody, fixed P3U1 cells expressing the chimera
T1 construct: Chimeric receptor on transfected P3U1 cells
Description: (§1) The gene of hIGFIR[L1-L2]/hINSR as Substitution 1 is shown in SEQ ID NO: 23; the gene of hINSR[L1-L2]/hIGFIR as Substitution 2 is shown in SEQ ID NO: 24; the gene of hINSR[L1]/hIGFIR as Substitution 3 is shown in SEQ ID NO: 25; and the gene of hINSR[L2]/hIGFIR as Substitution 4 is shown in SEQ ID NO: 26. After the lipofection, the P3U1 cells were cultured at least overnight and were added to a 96-well plate (coated with poly-D-lysine) at a concentration of 0.8×10⁵ cells/well and immobilized with 10% buffered formalin (Mildform® 10 NM, Wako), followed by blocking with phosphate buffer containing 3% BSA. The plate was used in ELISA.
(§2) In ELISA, 30 μL of an antibody solution adjusted to 10 nM with 0.1% skimmed milk/3% BSA/PBS was added to each well and was subjected to reaction at room temperature for about 1.5 hours. After washing with a washing liquid twice, 30 μL of an anti-mouse-IgG antibody-HRP conjugate solution adjusted to 5 nM with 0.1% skimmed milk/3% BSA/PBS was added to each well and was subjected to reaction at room temperature for about 1 hour. After washing with a washing liquid twice, 50 μL of a substrate (TMB) was added to each well to start the reaction. After about 20 minutes, 50 μL of 0.5 M sulfuric acid was added to each well to stop the reaction. The absorbances at 450 nm and 550 nm were measured, and the difference between absorbance values at 450 nm and 550 nm was calculated. The avidity was calculated based on the difference between absorbance values at 450 nm and 550 nm for cells (Mock cells, SEQ ID NO: 22) transfected with a vector not containing the gene of each substitution as a standard value 1 (Table 3).

hIGFIR[L1-L2]/hINSR = target: T2, hIGFIR[L1-L2]/hINSR (human); experiment: as above
T2 construct: Chimeric receptor on transfected P3U1 cells
Description: as §1, §2

hINSR[L1]/hIGFIR = target: T3, hINSR[L1]/hIGFIR (human); experiment: as above
T3 construct: Chimeric receptor on transfected P3U1 cells
Description: as §1, §2

hINSR[L1-L2]/hIGFIR = target: T4, hINSR[L1-L2]/hIGFIR (human); experiment: as above
T4 construct: Chimeric receptor on transfected P3U1 cells
Description: as §1, §2

human insulin receptor = target: T5, human insulin receptor (human, UniProt P06213 28-1382); experiment: Cell ELISA on HEK 293T cells expressing human insulin receptor
T5 construct: whole, on cells; Expressed on transfected HEK 293T cells; also called INSR; hINSR
Description: The HEK 293T cells after the lipofection were added to a 96-well plate (coated with poly-D-lysine) at a concentration of 0.8×10⁵ cells/well (about 180 μL/well) and were immobilized with 10% buffered formalin (Mildform® 10 NM, Wako), followed by blocking with phosphate buffer containing 3% BSA. The plate was used in ELISA.
In ELISA, antibody solutions (30 μL) adjusted to predetermined concentrations with 0.1% skimmed milk/3% BSA/PBS were added to respective wells and were subjected to reaction at room temperature for about 1 hour. After washing with a washing liquid (tris buffer containing Tween) twice, anti-mouse-IgG antibody-ALP conjugate solutions (30 μL) adjusted to predetermined concentrations with 0.1% skimmed milk/3% BSA/PBS were added to respective wells and were subjected to reaction at room temperature for about 1 hour. After washing with a washing liquid twice, 100 μL of a substrate (PNPP) was added to each well to start the reaction.

B1: IGF11-16 (antibody, mouse IgG1, kappa, V domains shown)
VH: QIQLQQPGAELVKPGASVKLSCKAPGYTFTSYWMHWVKQRPGQGLEWIGETNPSNSVTNYNEKFKSKATLTVDKSSSTAYMQLSSLTSEDSAVYYCTIGRGRGFAYWGQGTLVTVSA
VL: DIQMNQSPSSLSASLGDTITITCRASQNINFWLSWCQQKPGNIPKLLIYKASNLHTGVPSRFSGSGSGTDFTLTISSLQPEDIATYYCLQGQSYPYTFGGGTKLEIKR
notes: no cleavage site is stated; also called IGF-I receptor agonist antibody; IGF11-16 antibody
With B1 the “Avidity (absorbance difference 450-550 nm, Mock cells = 1)” value (hINSR[L2]/hIGFIR) was 5.6 fold of Mock cells, the “Avidity (absorbance difference 450-550 nm, Mock cells = 1)” value (hIGFIR[L1-L2]/hINSR) was 5.5 fold of Mock cells and the “Avidity (absorbance difference 450-550 nm, Mock cells = 1)” value (hINSR[L1]/hIGFIR) was 5.7 fold of Mock cells. For the same binder, the “Avidity (absorbance difference 450-550 nm, Mock cells = 1)” value (hINSR[L1-L2]/hIGFIR) was 1.5 fold of Mock cells and the binding result (human insulin receptor) was “no binding (tested: 0.5 nM and 5 nM; 1.5-fold of Mock cells)”.
